{"source": "paper PMC12136795", "about": "“RNA modifications and Prp24 coordinate Lsm2–8 binding dynamics during S. cerevisiae U6 snRNP assembly”", "key": {"[1]": {"biological_target": "T1, Lsm2-8 heteroheptamer WT (Saccharomyces cerevisiae, UniProt P38203;P57743;P40070;P40089;Q06406;P53905;P47093 …)", "T1 sequence 1": "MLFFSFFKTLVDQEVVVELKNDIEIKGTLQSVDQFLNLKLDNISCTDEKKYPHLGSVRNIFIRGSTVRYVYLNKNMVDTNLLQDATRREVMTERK", "T1 sequence 2": "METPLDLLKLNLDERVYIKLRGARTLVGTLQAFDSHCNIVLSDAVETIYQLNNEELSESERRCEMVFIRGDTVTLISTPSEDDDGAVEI", "T1 sequence 3": "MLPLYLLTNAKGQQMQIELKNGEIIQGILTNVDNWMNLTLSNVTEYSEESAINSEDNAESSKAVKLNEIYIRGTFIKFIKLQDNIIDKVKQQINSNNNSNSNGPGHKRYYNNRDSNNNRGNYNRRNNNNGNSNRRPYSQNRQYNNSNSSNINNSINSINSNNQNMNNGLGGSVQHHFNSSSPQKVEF", "T1 sequence 4": "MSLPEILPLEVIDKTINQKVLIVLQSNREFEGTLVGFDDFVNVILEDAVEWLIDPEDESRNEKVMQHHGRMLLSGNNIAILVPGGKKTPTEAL", "T1 sequence 5": "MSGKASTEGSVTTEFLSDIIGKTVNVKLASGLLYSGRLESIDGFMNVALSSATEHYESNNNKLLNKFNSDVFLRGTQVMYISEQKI", "T1 sequence 6": "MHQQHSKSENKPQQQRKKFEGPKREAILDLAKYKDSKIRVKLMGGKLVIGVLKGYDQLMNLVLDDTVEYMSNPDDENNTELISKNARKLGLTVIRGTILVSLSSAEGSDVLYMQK", "T1 sequence 7": "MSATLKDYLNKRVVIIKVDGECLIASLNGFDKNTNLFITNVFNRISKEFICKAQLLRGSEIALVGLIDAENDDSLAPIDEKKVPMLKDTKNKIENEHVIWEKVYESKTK", "test": "fluorescence polarization; Hill 1.26; FP: 2x RNA stock 2 nM mixed 1:1 with protein, 100 mM NaCl, 20 mM Bis-Tris pH 7.0, 10 mM HCl, 1 mM TCEP, 5% glycerol, yeast tRNA, BSA. EMSA: 100 mM KCl, 20% sucrose, 20 mM Hepes pH 7, 1 mM EDTA, 1 mM TCEP, 0.01% Triton X-100 (RNA buffer), yeast tRNA, heparin, BSA, 30 min room temperature, 6% native PAGE at 4 C. CoSMoS buffer not in material.", "conditions": "protein: recombinant; tags: His-tag removed with TEV; copies: 1;1;1;1;1;1;1; label: fluorophore"}, "[2]": {"biological_target": "T2, Lsm2-8fSNAP (unlabeled) (Saccharomyces cerevisiae, UniProt P38203;P57743;P40070;P40089;Q06406;P53905;P47093 …)", "T2 sequence 1": "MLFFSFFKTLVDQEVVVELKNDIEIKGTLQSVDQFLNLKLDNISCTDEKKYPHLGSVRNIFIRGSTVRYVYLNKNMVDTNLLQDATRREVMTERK", "T2 sequence 2": "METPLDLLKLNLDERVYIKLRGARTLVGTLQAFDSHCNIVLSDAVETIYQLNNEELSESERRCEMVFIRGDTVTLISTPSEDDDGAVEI", "T2 sequence 3": "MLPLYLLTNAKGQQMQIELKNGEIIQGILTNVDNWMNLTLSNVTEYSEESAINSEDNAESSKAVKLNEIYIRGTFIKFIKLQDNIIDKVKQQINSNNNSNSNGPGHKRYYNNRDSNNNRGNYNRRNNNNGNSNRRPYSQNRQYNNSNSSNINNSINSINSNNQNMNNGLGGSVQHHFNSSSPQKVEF", "T2 sequence 4": "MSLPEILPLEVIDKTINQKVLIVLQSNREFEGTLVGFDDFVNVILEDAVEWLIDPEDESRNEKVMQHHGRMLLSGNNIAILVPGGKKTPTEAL", "T2 sequence 5": "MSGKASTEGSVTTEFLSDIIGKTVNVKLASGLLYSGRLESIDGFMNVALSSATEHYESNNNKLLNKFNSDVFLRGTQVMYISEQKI", "T2 sequence 6": "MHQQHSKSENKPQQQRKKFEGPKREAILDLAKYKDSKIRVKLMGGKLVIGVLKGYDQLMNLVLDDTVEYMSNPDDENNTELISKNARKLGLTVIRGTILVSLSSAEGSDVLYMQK", "T2 sequence 7": "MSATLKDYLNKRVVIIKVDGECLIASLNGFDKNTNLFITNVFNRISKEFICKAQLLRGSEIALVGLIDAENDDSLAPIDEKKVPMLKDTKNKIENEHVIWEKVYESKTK", "test": "fluorescence polarization; Hill 1.35; FP: 2x RNA stock 2 nM mixed 1:1 with protein, 100 mM NaCl, 20 mM Bis-Tris pH 7.0, 10 mM HCl, 1 mM TCEP, 5% glycerol, yeast tRNA, BSA. EMSA: 100 mM KCl, 20% sucrose, 20 mM Hepes pH 7, 1 mM EDTA, 1 mM TCEP, 0.01% Triton X-100 (RNA buffer), yeast tRNA, heparin, BSA, 30 min room temperature, 6% native PAGE at 4 C. CoSMoS buffer not in material.", "conditions": "protein: recombinant; tags: fast SNAP tag at C terminus of Lsm8 via flexible linker; His-tag removed with TEV; copies: 1;1;1;1;1;1;1; label: fluorophore"}, "[3]": {"biological_target": "T1, Lsm2-8 heteroheptamer WT", "test": "fluorescence polarization; Hill 1.11; FP: 2x RNA stock 2 nM mixed 1:1 with protein, 100 mM NaCl, 20 mM Bis-Tris pH 7.0, 10 mM HCl, 1 mM TCEP, 5% glycerol, yeast tRNA, BSA. EMSA: 100 mM KCl, 20% sucrose, 20 mM Hepes pH 7, 1 mM EDTA, 1 mM TCEP, 0.01% Triton X-100 (RNA buffer), yeast tRNA, heparin, BSA, 30 min room temperature, 6% native PAGE at 4 C. CoSMoS buffer not in material.", "conditions": "protein: recombinant; tags: His-tag removed with TEV; copies: 1;1;1;1;1;1;1; label: fluorophore"}, "[4]": {"biological_target": "T2, Lsm2-8fSNAP (unlabeled)", "test": "fluorescence polarization; Hill 0.88; FP: 2x RNA stock 2 nM mixed 1:1 with protein, 100 mM NaCl, 20 mM Bis-Tris pH 7.0, 10 mM HCl, 1 mM TCEP, 5% glycerol, yeast tRNA, BSA. EMSA: 100 mM KCl, 20% sucrose, 20 mM Hepes pH 7, 1 mM EDTA, 1 mM TCEP, 0.01% Triton X-100 (RNA buffer), yeast tRNA, heparin, BSA, 30 min room temperature, 6% native PAGE at 4 C. CoSMoS buffer not in material.", "conditions": "protein: recombinant; tags: fast SNAP tag at C terminus of Lsm8 via flexible linker; His-tag removed with TEV; copies: 1;1;1;1;1;1;1; label: fluorophore"}, "[5]": {"biological_target": "T2, Lsm2-8fSNAP (unlabeled)", "test": "fluorescence polarization; Hill 1.12; FP: 2x RNA stock 2 nM mixed 1:1 with protein, 100 mM NaCl, 20 mM Bis-Tris pH 7.0, 10 mM HCl, 1 mM TCEP, 5% glycerol, yeast tRNA, BSA. EMSA: 100 mM KCl, 20% sucrose, 20 mM Hepes pH 7, 1 mM EDTA, 1 mM TCEP, 0.01% Triton X-100 (RNA buffer), yeast tRNA, heparin, BSA, 30 min room temperature, 6% native PAGE at 4 C. CoSMoS buffer not in material.", "conditions": "protein: recombinant; tags: fast SNAP tag at C terminus of Lsm8 via flexible linker; His-tag removed with TEV; copies: 1;1;1;1;1;1;1; label: fluorophore"}, "[6]": {"biological_target": "T1, Lsm2-8 heteroheptamer WT", "test": "fluorescence polarization; Hill 1.18; FP: 2x RNA stock 2 nM mixed 1:1 with protein, 100 mM NaCl, 20 mM Bis-Tris pH 7.0, 10 mM HCl, 1 mM TCEP, 5% glycerol, yeast tRNA, BSA. EMSA: 100 mM KCl, 20% sucrose, 20 mM Hepes pH 7, 1 mM EDTA, 1 mM TCEP, 0.01% Triton X-100 (RNA buffer), yeast tRNA, heparin, BSA, 30 min room temperature, 6% native PAGE at 4 C. CoSMoS buffer not in material.", "conditions": "protein: recombinant; tags: His-tag removed with TEV; copies: 1;1;1;1;1;1;1; label: fluorophore"}}, "data": [{"binder": "AGAGAUUUAUUUCGUUUU (ssRNA, 3' cis-diol (2',3'-OH))", "note": "[U6 95-112-OH]", "values": [{"measurement": "Kd", "setting": "[1]", "value": "84.6 ± 16.8", "unit": "nM"}, {"measurement": "Kd", "setting": "[2]", "value": "114 ± 16.8", "unit": "nM"}]}, {"binder": "AGAGAUUUAUUUCGUUUU (ssRNA, 3' phosphate)", "note": "[U6 95-112-P]", "values": [{"measurement": "Kd", "setting": "[3]", "value": "10.3 ± 4.1", "unit": "nM"}, {"measurement": "Kd", "setting": "[4]", "value": "12.8 ± 3.87", "unit": "nM"}]}, {"binder": "AGAGAUUUAUUUCGUUUUU (ssRNA, 3' cis-diol (2',3'-OH))", "note": "[U6 95-113-OH]", "values": [{"measurement": "Kd", "setting": "[5]", "value": "6.7 ± 1.1", "unit": "nM"}, {"measurement": "Kd", "setting": "[6]", "value": "6.75 ± 1.15", "unit": "nM"}]}]}
